Laboratory results as given in patent US20040018971A1 (published 2004).

Columns and labels:
[1] = target: T1, HLA-A*0101 (purified HLA class I molecule) (human); test: competition with 125I-labelled standard peptide on purified HLA-A*0101, gel filtration
T1 construct: also called HLA-A1

HLA-A*0301 [2] = target: T2, HLA-A*0301 (human); test: competition with 125I-labelled probe peptide for purified HLA-A*0301, gel filtration; ratio to standard peptide 941.12
T2 construct: also called HLA-A3

HLA-A*1101 [3] = target: T3, HLA-A*1101 (human); test: competition with 125I-labelled standard peptide for purified HLA, gel filtration
T3 construct: The construct is not described

HLA-A*0301 [4] = target: T4, HLA-A*0301 (human); test: as above
T4 construct: also called A3

HLA-A*2402 = HLA-A*2402 (human); test: inhibition of 125I-labeled probe peptide binding to purified HLA-A*2402, gel filtration
HLA-A*0301 [5] = target: T5, HLA-A*0301 (human); test: inhibition of 125I-labelled standard peptide 941.12 binding to purified HLA-A*0301, gel filtration
T5 construct: also called HLA-A3

HLA-A*1101 [6] = target: HLA-A*1101 (human); test: competition with 125I-labelled probe peptide for purified HLA-A*1101, gel filtration; ratio to standard peptide 940.06 [..] (6.0 nM)
HLA-A*0101 = target: T6, HLA-A*0101 (human); test: inhibition of 125I-labeled probe peptide binding to purified HLA-A*0101, gel filtration
T6 construct: also called HLA-A1

For DMGDLVDAEEY [HER2/neu peptide, position 1013, 11 amino acids], the “relative binding ratio (IC50 of standard peptide / IC50 of test peptide)” value [1] was 0.0027 ratio.

For DSECRPRFR (Synthetic peptide) [HER2/neu peptide, position 962, 9 amino acids (DSECRPRFR)], the “relative binding ratio (IC50 of standard peptide / IC50 of test peptide)” value (HLA-A*0301 [2]) was -0.0002 ratio.

B1: HER2/neu peptide, position 835, 10 amino acids (peptide)
peptide: YLEDVRLVHR
notes: Synthetic peptide; also called Her2/neu.835 (10-mer)
With B1 the relative binding ratio (HLA-A*1101 [3]) was 0.0001 ratio (IC50 of standard peptide / IC50 of test peptide) and the relative binding ratio (HLA-A*0301 [4]) was 0.0003 ratio (IC50 of standard peptide / IC50 of test peptide).

With TYLPTNASL (HER2/neu peptide, 9-mer) [Her2/neu.63] the IC50 (HLA-A*2402) was 316 nM.

Work on TYLPTNASF (HER2/neu analog peptide) [Her2/neu.63.F9] yielded an IC50 (HLA-A*2402) of 44 nM.

B2: HER2/neu peptide, position 888, 9 amino acids (peptide)
peptide: WMALESILR
notes: Synthetic peptide; also called Her2/neu.888 (9-mer)
For B2, the relative binding ratio (HLA-A*1101 [3]) was -0.0002 ratio (IC50 of standard peptide / IC50 of test peptide) and the relative binding ratio (HLA-A*0301 [4]) was -0.0002 ratio (IC50 of standard peptide / IC50 of test peptide).

QVRQVPLQR [HER2/neu peptide, position 90, 9 amino acids] was tested, and the “relative binding ratio (IC50 of standard peptide / IC50 of test peptide)” value (HLA-A*0301 [5]) was 0.0029 ratio.

WIPDGENVK (also called Her2/neu.739) [HER2/neu peptide, printed position 730 (taken as 739), 9 amino acids] was tested, and the “relative binding ratio (IC50 of standard peptide / IC50 of test peptide)” value (HLA-A*1101 [6]) was 0.0001 ratio.

Binder CYGLGMEHF (HER2/neu analog peptide) [Her2/neu.342.F9] has an IC50 (HLA-A*2402) of 164 nM.

B3: HER2/neu peptide, position 83, 10 amino acids (peptide)
peptide: YVLIAHNQVR
notes: Synthetic peptide; also called Her2/neu.83 (10-mer)
B3 was tested, and the relative binding ratio (HLA-A*1101 [3]) was 0.0013 ratio (IC50 of standard peptide / IC50 of test peptide) and the relative binding ratio (HLA-A*0301 [4]) was 0.0043 ratio (IC50 of standard peptide / IC50 of test peptide).

With VFETLEEITGY (HER2/neu peptide) [Her2/neu.399] the IC50 (HLA-A*0101) was 5560 nM.

PTHDPSPLQR (H was used here) [HER2/neu peptide, position 1102, 10 amino acids] was tested, and the “relative binding ratio (IC50 of standard peptide / IC50 of test peptide)” value (HLA-A*0301 [5]) was 0.0003 ratio.

For YLEDVRLVHR (also called Her2/neu.835), the “relative binding ratio (IC50 of standard peptide / IC50 of test peptide)” value (HLA-A*1101 [6]) was 0.0001 ratio.

YVMAGVGSPY (also called Her2/neu.772) [HER2/neu peptide, position 772, 10 amino acids] was tested, and the “relative binding ratio (IC50 of standard peptide / IC50 of test peptide)” value (HLA-A*1101 [6]) was 0.012 ratio.

VTACPYNY (HER2/neu peptide) [Her2/neu.296] was tested, and the IC50 (HLA-A*0101) was 250 nM.

PASPLDSTFY [HER2/neu peptide, position 996, 10 amino acids] was tested, and the “relative binding ratio (IC50 of standard peptide / IC50 of test peptide)” value (HLA-A*0301 [5]) was 0.0003 ratio.

GTDLFEDNY (HER2/neu analog peptide) [Her2/neu.104.D3] gave an IC50 (HLA-A*0101) of 0.9 nM.

For PLQRLRIVR [HER2/neu peptide, position 95, 9 amino acids], the “relative binding ratio (IC50 of standard peptide / IC50 of test peptide)” value (HLA-A*0301 [5]) was 0.0002 ratio.

For ETMPNPEGRY (HER2/neu analog peptide) [Her2/neu.280.T2], the IC50 (HLA-A*0101) was 3.9 nM.

Binder RYTHQSDVF (HER2/neu analog peptide) [Her2/neu.898.Y2F9] has an IC50 (HLA-A*2402) of 60 nM.

With WMIDSECRPR (also called Her2/neu.959) [HER2/neu peptide, position 959, 10 amino acids] the “relative binding ratio (IC50 of standard peptide / IC50 of test peptide)” value (HLA-A*1101 [6]) was 0.0002 ratio.

B4: Her2/neu.8 (peptide)
peptide: RWGLLLAL
notes: HER2/neu peptide, 8-mer; also called RWGLLLAL
B4 showed an IC50 (HLA-A*2402) of 480 nM.

Work on SYGVTVWEL (HER2/neu peptide) [Her2/neu.907] yielded an IC50 (HLA-A*2402) of 100 nM.

B5: Herw/neu414.Y2F9 (peptide)
peptide: AYPDSLPDF
notes: HER2/neu analog peptide; label printed with a misprint (Herw/neu414)
With B5 the IC50 (HLA-A*2402) was 24 nM.

With WMALESILRR (also called Her2/neu.888) [HER2/neu peptide, position 888, 10 amino acids] the “relative binding ratio (IC50 of standard peptide / IC50 of test peptide)” value (HLA-A*1101 [6]) was 0.0016 ratio.

For LYISAWPDSL (HER2/neu peptide) [Her2/neu.410], the IC50 (HLA-A*2402) was 143 nM.

With LYISAWPDSF (HER2/neu analog peptide) [Her2/neu.410.F10] the IC50 (HLA-A*2402) was 10 nM.

B6: HER2/neu peptide, position 129, 10 amino acids (peptide)
peptide: VTGASPGGLR
notes: Synthetic peptide; also called Her2/neu.129 (10-mer)
For B6, the relative binding ratio (HLA-A*1101 [3]) was 0.0005 ratio (IC50 of standard peptide / IC50 of test peptide) and the relative binding ratio (HLA-A*0301 [4]) was 0.0002 ratio (IC50 of standard peptide / IC50 of test peptide).

For PLPSETDGY [HER2/neu peptide, position 1119, 9 amino acids], the “relative binding ratio (IC50 of standard peptide / IC50 of test peptide)” value (HLA-A*0301 [5]) was 0.0002 ratio.

Binder ETHLDMLRHLY (HER2/neu peptide) [Her2/neu.40] has an IC50 (HLA-A*0101) of 89 nM.

For DLAARNVLVK (Synthetic peptide) [HER2/neu peptide, position 845, 10 amino acids (DLAARNVLVK)], the “relative binding ratio (IC50 of standard peptide / IC50 of test peptide)” value (HLA-A*0301 [2]) was 0.0018 ratio.

In the case of ESMPNPEGR (Synthetic peptide) [HER2/neu peptide, position 280, 9 amino acids (ESMPNPEGR)], the “relative binding ratio (IC50 of standard peptide / IC50 of test peptide)” value (HLA-A*0301 [2]) is reported as 0.0003 ratio.
